In ChEMBL document CHEMBL3525898, “Pharmacogenomics of gemcitabine metabolism: functional analysis of genetic variants in cytidine deaminase and deoxycytidine kinase” (Drug Metab Dispos, 2013):

How the values were obtained:
Format in all cases: ADME
[1] = system: Nc1ccn([C@@H]2O[C@H](CO)[C@@H](O)C2(F)F)c(=O)n1; assay: Activity of human recombinant N-terminal His-SUMO fused CDA Lys27Gln mutant expressed in Escherichia coli BL21(DE3) cells assessed as 2',2'-difluorodeoxyuridine formation by liquid chromatography-tandem mass spectrometry
[2] = system: Nc1ccn([C@@H]2O[C@H](CO)[C@@H](O)C2(F)F)c(=O)n1; assay: Activity of human recombinant N-terminal His-SUMO fused CDA Ala70Thr mutant expressed in Escherichia coli BL21(DE3) cells assessed as 2',2'-difluorodeoxyuridine formation by liquid chromatography-tandem mass spectrometry
[3] = system: Nc1ccn([C@@H]2O[C@H](CO)[C@@H](O)C2(F)F)c(=O)n1; assay: Activity of human recombinant N-terminal His-tagged wild type DCK expressed in Escherichia coli BL21(DE3) cells assessed as enzyme-mediated […] incubated for 1 min by liquid chromatography-tandem mass spectrometry

Chain of Deoxycytidine kinase (Homo sapiens) (chain, as listed by the source): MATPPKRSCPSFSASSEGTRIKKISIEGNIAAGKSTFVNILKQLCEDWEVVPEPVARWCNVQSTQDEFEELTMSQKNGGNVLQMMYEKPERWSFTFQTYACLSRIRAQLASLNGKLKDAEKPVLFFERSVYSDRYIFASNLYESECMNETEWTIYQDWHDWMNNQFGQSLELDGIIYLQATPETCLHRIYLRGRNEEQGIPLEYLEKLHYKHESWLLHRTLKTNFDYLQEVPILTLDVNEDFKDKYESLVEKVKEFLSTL

Cytidine deaminase (Homo sapiens; K27Q)
Km [1]: 562 µM
Vmax [1]: 0.195 µmol/min/mg

Cytidine deaminase (Homo sapiens; A70T)
Km [2]: 610 µM
Vmax [2]: 0.151 µmol/min/mg

Deoxycytidine kinase (Homo sapiens)
Km [3]: 2.15 µM
Vmax [3]: 1.06 µmol/min/mg
